Target: T1, recombinant human α5β1 ECD heterodimer (human, UniProt P08648 42-995; P05556 21-728)
T1 construct: integrin α5, human, extracellular domain; integrin β1, human, extracellular domain; also called recombinant heterodimer of integrin ECD (α5β1); source: bought: R&D Systems (3230-A5-050)
Assay: pull-down; TMEM2–ECD-His6 (about 5 μg/20 μl) held on ProBond nickel chelating resin; 2 μg recombinant integrin ECD heterodimer incubated in HBSS++ overnight at 4 °C; control unbound resin; blots
Details: both partners purified

T1 sequence (P08648 42-995, chain 1 of 2): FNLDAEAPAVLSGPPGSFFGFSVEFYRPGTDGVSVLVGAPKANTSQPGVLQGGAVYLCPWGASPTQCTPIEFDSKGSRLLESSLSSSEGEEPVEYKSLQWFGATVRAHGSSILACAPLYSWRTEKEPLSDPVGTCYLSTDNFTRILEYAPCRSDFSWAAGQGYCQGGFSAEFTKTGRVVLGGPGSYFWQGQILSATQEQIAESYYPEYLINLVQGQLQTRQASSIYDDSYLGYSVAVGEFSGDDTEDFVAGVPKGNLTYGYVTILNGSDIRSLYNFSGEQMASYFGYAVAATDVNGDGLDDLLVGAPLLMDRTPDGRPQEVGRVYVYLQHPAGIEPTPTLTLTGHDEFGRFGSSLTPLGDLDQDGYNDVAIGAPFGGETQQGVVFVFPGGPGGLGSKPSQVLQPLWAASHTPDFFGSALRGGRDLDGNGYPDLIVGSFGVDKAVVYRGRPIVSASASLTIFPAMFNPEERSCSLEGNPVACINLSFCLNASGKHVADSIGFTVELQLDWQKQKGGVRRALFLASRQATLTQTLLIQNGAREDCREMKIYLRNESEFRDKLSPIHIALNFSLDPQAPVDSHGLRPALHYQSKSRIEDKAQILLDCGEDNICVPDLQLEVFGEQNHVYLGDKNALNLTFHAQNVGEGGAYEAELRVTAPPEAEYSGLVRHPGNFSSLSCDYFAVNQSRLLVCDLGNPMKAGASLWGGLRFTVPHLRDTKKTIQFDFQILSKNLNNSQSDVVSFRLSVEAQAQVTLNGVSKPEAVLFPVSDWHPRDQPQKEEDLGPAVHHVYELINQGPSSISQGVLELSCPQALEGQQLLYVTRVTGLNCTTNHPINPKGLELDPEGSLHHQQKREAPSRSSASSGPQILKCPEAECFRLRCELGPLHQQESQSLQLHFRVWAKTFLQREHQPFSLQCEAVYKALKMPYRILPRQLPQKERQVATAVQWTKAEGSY
T1 sequence (P05556 21-728, chain 2 of 2): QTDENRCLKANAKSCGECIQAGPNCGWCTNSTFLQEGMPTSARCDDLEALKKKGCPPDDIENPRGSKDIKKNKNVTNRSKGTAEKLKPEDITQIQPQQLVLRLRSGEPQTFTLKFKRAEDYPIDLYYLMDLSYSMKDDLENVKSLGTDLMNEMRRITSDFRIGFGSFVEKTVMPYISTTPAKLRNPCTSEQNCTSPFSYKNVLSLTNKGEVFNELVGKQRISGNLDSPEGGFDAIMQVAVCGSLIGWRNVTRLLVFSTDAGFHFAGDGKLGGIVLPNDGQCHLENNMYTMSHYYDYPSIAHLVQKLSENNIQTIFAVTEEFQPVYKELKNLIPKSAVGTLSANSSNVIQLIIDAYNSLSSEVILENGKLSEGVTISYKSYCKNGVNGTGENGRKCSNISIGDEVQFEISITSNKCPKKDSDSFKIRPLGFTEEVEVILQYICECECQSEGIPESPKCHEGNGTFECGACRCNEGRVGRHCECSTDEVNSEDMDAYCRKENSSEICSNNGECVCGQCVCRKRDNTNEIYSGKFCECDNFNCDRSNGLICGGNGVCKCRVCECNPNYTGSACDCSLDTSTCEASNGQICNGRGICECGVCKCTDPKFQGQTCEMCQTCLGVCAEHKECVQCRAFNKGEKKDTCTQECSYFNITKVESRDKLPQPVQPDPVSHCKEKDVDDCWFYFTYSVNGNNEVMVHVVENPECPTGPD

binding result: binds
B1: recombinant soluble TMEM2 extracellular domain, 6x His-tagged (domain or fragment, mouse, UniProt Q5FWI3 104-1383, looked up)
chain: SSKYAPDENCPDQNPRLRNWDPGQDSAKHIVIKEGDLFRLTSDATVDSIVIQDGGLLVFGDDKDGSKNITLRTRYILIQDGGALHIGAEKCRYRSKATITLYGKSDERESMPIFGKKFIGVEAGGTLELHGAQRTSWTMLARTLHSSGLPFGSYAFEKDFSRGLNVRVIDQDTARVLENEKFDTHEYHNESRRLQEFLRAQEPGRIVAIAVGDSAVKSLLQGTIQMIQDRLGSKLIQGLGYRQAWALVGVIDGGSSSCNESVRNYENHSTGGKALAQGEFYTLDGQKFSVTAYSEWSQGISLSGFRVDIADGVKLHLLDDVSTWEAGDRIVVASTDYSMYQAEELTLLRCPECSRSQVKVKEIPQYLHVGEIIDGIDMRAEVGLLTRNIVIQGEMEDSCYAENHCQFFDYDTFGGHVMIEKNFTSVHLSYVELKHMGQQHMGRYPVHFHLCGDVDSKGGYSQPASVDGLSVHHSFSRCITVHGTSGLLIKDTIGFDTLGHCFFLEDGVEQRNILYHNLGLLTKPGTLLPTDRNSSMCTVMRDGVFGNYVPVPTTDCMAVSTFWIAHPNNHLINNAAAGSQDAGIWYLFHKEPTGESSGLQLLEKPELTPLGIFYNNRVHSNFKAGLFVDKGVKTTNASASDPREYLCLDNSARFRPHQDADPEKPRVAAIIDRLIAFKNNDNGAWVRGGDIIVQNSAFADNGKGLTFASDGSFPSDEGSSQEVTESLFVGESRNYGFQGGQNKYMGTGGIDQKPRTLPRNRTFPIRGFQIYDGPIHLTKSTFKKYVPTPDRYSSAIGFLMKNSWQTTPRNNVSLVKFGPQVSLNVFFGKPGPWFEDCELDGDKNSIFHDIDGSVTGYKDTYVGRMDNYLIRHPNCVNVTKWNAVICSGTYAQVYVQTWNTPNLSMIITRDEYPSHPMVLRGINQRAISPQYQPVVMLEKGYTIHWNGPAPRTTFLYLVNFNKDDWIRVGLCYPANTSFQVTVGFLQRQNGSLSRIEDYEPARSMEELQKKPSERKFYFDSGTGLLFLYLRAHSHRDGHSYCSSQGCERVKIQAATDSKDISNCMAKAYPQYYKKPSAVKRMPAMLTGLCQGCGTHQMVFTSDPHKSYLPVRFQSPGKAEIQRGDPSIISVNGTDFTFRSAGALLLIVDACSVPFRVKEKRMFLSADVSHMEEYFKASIPPRSIVLLSTRGEIKQLNISDSLAVLGLAKPAHLYSKGSVVFLGFSGNFAPSWTKLFTSPDEQGLGVLEQFLPLQMEEYGCSRTGSVHRRDLDLLQQALKVL
notes: transmembrane protein 2 (TMEM2; CEMIP2), mouse, extracellular domain Ser104–Leu1383; in pSecTag2A with the C-terminal Myc peptide removed; the vector supplies a secretion leader (surmised); also called TMEM2 ECD; TMEM2–ECD; not shown: His6, C-terminal, kept

Source: PMC8042168, “The cell surface hyaluronidase TMEM2 regulates cell adhesion and migration via degradation of hyaluronan at focal adhesion sites” (The Journal of Biological Chemistry, 2021)
